Source: patent US20230265151A1, “GIP/GLP1 CO-AGONIST COMPOUNDS” (priority 2020, published 2023)
Residue numbers refer to the chain shown, from its start. *1 amine or outer side, *2 acyl side, *3 side chain or, on linkers, in order; H or OH if unused. Where no end group is shown, it is not given here. Side-chain parts run from the residue outwards. [ ]: non-standard residue; d: D form. The star is where a group is joined. αMePhe(2-F) = C[C@](N)(Cc1ccccc1F)C(=O)O; γGlu = O=C(O)[C@H](CCC(=O)[*:2])N[*:1]; C14 diacid = O=C(O)CCCCCCCCCCCCC(=O)*; αMeY = C[C@](N)(Cc1ccc(O)cc1)C(=O)O; αMeL = CC(C)C[C@](C)(N)C(=O)O; Nle = CCCC[C@H](N)C(=O)O; Orn = NCCC[C@H](N)C(=O)O; AEEA = NCCOCCOCC(=O)O; Aib = CC(C)(N)C(=O)O

T1: human GIP receptor (human, UniProt P48546 22-466)
T1 sequence (looked up): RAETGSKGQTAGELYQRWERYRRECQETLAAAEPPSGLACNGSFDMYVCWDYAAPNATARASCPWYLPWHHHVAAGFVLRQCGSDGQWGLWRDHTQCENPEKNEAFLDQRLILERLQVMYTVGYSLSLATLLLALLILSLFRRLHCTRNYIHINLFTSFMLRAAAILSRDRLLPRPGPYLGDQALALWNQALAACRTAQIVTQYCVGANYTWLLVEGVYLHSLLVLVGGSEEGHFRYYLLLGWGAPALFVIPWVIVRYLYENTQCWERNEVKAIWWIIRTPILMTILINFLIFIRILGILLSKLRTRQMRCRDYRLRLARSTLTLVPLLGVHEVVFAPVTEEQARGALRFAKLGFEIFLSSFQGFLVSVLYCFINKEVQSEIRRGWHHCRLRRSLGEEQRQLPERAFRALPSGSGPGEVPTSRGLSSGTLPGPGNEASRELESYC

B1: Example 270 (peptide)
peptide: YXEGTXTSDXSIXLDXIAQXEFIKXLIKGGPSSGAPPPS
modifications: Y-Aib-EGT-αMeF(2F)-TSD-hTyr-SI-αMeL-LD-Orn-IAQ-Aib-EFIK((2-[2-(2-Amino-ethoxy)-ethoxy]-acetyl)2-(γ-Glu)-CO-(CH2)12-CO2H)-αMeY-LIK((2-[2-(2-Amino-ethoxy)-ethoxy]-acetyl)2-(γ-Glu)-CO-(CH2)12-CO2H)GGPSSGAPPPS-NH2
B2: Example 282 (peptide)
peptide: B1 peptide with I17K, K24X
modifications: Y-Aib-EGT-αMeF(2F)-TSD-2Nal-SI-αMeL-LD-Orn-K((2-[2-(2-Amino-ethoxy)-ethoxy]-acetyl)2-(γ-Glu)-(10-(4-carboxyphenoxy)decanoyl))AQ-Aib-EFI-(D-Glu)-αMeY-LIK((2-[2-(2-Amino-ethoxy)-ethoxy]-acetyl)2-(γ-Glu)-(10-(4-carboxyphenoxy)decanoyl))GGPSSGAPPPS-NH2
B3: Example 277 (peptide)
peptide: B1 peptide with I17K, E21K, K24X, K28E
modifications: Y-Aib-EGT-αMeF(2F)-TSD-OMeY-SI-αMeL-LD-Orn-K((2-[2-(2-Amino-ethoxy)-ethoxy]-acetyl)2-(γ-Glu)-(10-(4-carboxyphenoxy)decanoyl))AQ-Aib-K((2-[2-(2-Amino-ethoxy)-ethoxy]-acetyl)2-(γ-Glu)-(10-(4-carboxyphenoxy)decanoyl))FI-(D-Glu)-αMeY-LIEGGPSSGAPPPS-NH2
B4: Example 274 (peptide)
peptide: B1 peptide
modifications: Y-Aib-EGT-αMeF(2F)-TSD-4Pa1-SI-αMeL-LD-Orn-IAQ-Aib-EFIK((2-[2-(2-Amino-ethoxy)-ethoxy]-acetyl)2-(γ-Glu)-(10-(4-carboxyphenoxy)decanoyl))-αMeY-LIK((2-[2-(2-Amino-ethoxy)-ethoxy]-acetyl)2-(γ-Glu)-(10-(4-carboxyphenoxy)decanoyl))GGPSSGAPPPS-NH2
B5: Example 284 (peptide)
peptide: B1 peptide with E21K, K24X
modifications: Y-Aib-EGT-αMeF(2F)-TSD-2Nal-SI-αMeL-LD-Orn-IAQ-Aib-K((2-[2-(2-Amino-ethoxy)-ethoxy]-acetyl)2-(γ-Glu)-(10-(4-carboxyphenoxy)decanoyl))FI-(D-Glu)-αMeY-LIK((2-[2-(2-Amino-ethoxy)-ethoxy]-acetyl)2-(γ-Glu)-(10-(4-carboxyphenoxy)decanoyl))GGPSSGAPPPS-NH2
B6: Example 283 (peptide)
peptide: B1 peptide
modifications: Y-Aib-EGT-αMeF(2F)-TSD-2Nal-SI-αMeL-LD-Orn-IAQ-Aib-EFIK((2-[2-(2-Amino-ethoxy)-ethoxy]-acetyl)2-(γ-Glu)-(10-(4-carboxyphenoxy)decanoyl))-αMeY-LIK((2-[2-(2-Amino-ethoxy)-ethoxy]-acetyl)2-(γ-Glu)-(10-(4-carboxyphenoxy)decanoyl))GGPSSGAPPPS-NH2
B7: Example 279 (peptide)
peptide: B1 peptide
modifications: Y-Aib-EGT-αMeF(2F)-TSD-OMeY-SI-αMeL-LD-Orn-IAQ-Aib-EFIK((2-[2-(2-Amino-ethoxy)-ethoxy]-acetyl)2-(γ-Glu)-(10-(4-carboxyphenoxy)decanoyl))-αMeY-LIK((2-[2-(2-Amino-ethoxy)-ethoxy]-acetyl)2-(γ-Glu)-(10-(4-carboxyphenoxy)decanoyl))GGPSSGAPPPS-NH2
B8: Example 281 (peptide)
peptide: B1 peptide with I17K, E21K, K24X, K28E
modifications: Y-Aib-EGT-αMeF(2F)-TSD-2Nal-SI-αMeL-LD-Orn-K((2-[2-(2-Amino-ethoxy)-ethoxy]-acetyl)2-(γ-Glu)-(10-(4-carboxyphenoxy)decanoyl))AQ-Aib-K((2-[2-(2-Amino-ethoxy)-ethoxy]-acetyl)2-(γ-Glu)-(10-(4-carboxyphenoxy)decanoyl))FI-(D-Glu)-αMeY-LIEGGPSSGAPPPS-NH2
B9: Example 286 (peptide)
peptide: B1 peptide
modifications: Y-Aib-EGT-αMeF(2F)-TSD-4Pal-SI-αMeL-LD-Orn-IAQ-Aib-EFIK(2-[2-(2-Amino-ethoxy)-ethoxy]-acetyl)2-(γ-Glu)-(11-(4-carboxyphenoxy)undecanoyl)-αMeY-LIK((2-[2-(2-Amino-ethoxy)-ethoxy]-acetyl)2-(γ-Glu)-(11-(4-carboxyphenoxy)undecanoyl)GGPSSGAPPPS-NH2)
B10: Example 287 (peptide)
peptide: B1 peptide with E21K, K24X
modifications: Y-Aib-EGT-αMeF(2F)-TSD-4Pal-SI-αMeL-LD-Orn-IAQ-Aib-K(2-[2-(2-Amino-ethoxy)-ethoxy]-acetyl)2-(γ-Glu)-(11-(4-carboxyphenoxy)undecanoyl)FI-(D-Glu)-αMeY-LIK((2-[2-(2-Amino-ethoxy)-ethoxy]-acetyl)2-(γ-Glu)-(11-(4-carboxyphenoxy)undecanoyl)GGPSSGAPPPS-NH2)
B11: Example 272 (peptide)
peptide: B1 peptide with I17K, E21K, K24X, K28E
modifications: Y-Aib-EGT-αMeF(2F)-TSD-hTyr-SI-αMeL-LD-Orn-K((2-[2-(2-Amino-ethoxy)-ethoxy]-acetyl)2-CO-(CH2)12-CO2H)AQ-Aib-K((2-[2-(2-Amino-ethoxy)-ethoxy]-acetyl)2-CO-(CH2)12-CO2H)FI-(D-Glu)-αMeY-LIEGGPSSGAPPPS-NH2 …
B12: Example 278 (peptide)
peptide: B1 peptide with I17K, K24X
modifications: Y-Aib-EGT-αMeF(2F)-TSD-OMeY-SI-αMeL-LD-Orn-K((2-[2-(2-Amino-ethoxy)-ethoxy]-acetyl)2-(γ-Glu)-(10-(4-carboxyphenoxy)decanoyl))AQ-Aib-EFI-(D-Glu)-αMeY-LIK((2-[2-(2-Amino-ethoxy)-ethoxy]-acetyl)2-(γ-Glu)-(10-(4-carboxyphenoxy)decanoyl))GGPSSGAPPPS-NH2
B13: Example 280 (peptide)
peptide: B1 peptide with E21K, K24X
modifications: Y-Aib-EGT-αMeF(2F)-TSD-OMeY-SI-αMeL-LD-Orn-IAQ-Aib-K((2-[2-(2-Amino-ethoxy)-ethoxy]-acetyl)2-(γ-Glu)-(10-(4-carboxyphenoxy)decanoyl))FI-(D-Glu)-αMeY-LIK((2-[2-(2-Amino-ethoxy)-ethoxy]-acetyl)2-(γ-Glu)-(10-(4-carboxyphenoxy)decanoyl))GGPSSGAPPPS-NH2
B14: Example 275 (peptide)
peptide: B1 peptide with E21K, K24X
modifications: Y-Aib-EGT-αMeF(2F)-TSD-4Pa1-SI-αMeL-LD-Orn-IAQ-Aib-K((2-[2-(2-Amino-ethoxy)-ethoxy]-acetyl)2-(γ-Glu)-(10-(4-carboxyphenoxy)decanoyl))FI-(D-Glu)-αMeY-LIK((2-[2-(2-Amino-ethoxy)-ethoxy]-acetyl)2-(γ-Glu)-(10-(4-carboxyphenoxy)decanoyl))GGPSSGAPPPS-NH2
B15: Example 271 (peptide)
peptide: B1 peptide with I17K, E21K, K24X, K28E
modifications: Y-Aib-EGT-αMeF(2F)-TSD-Nle-SI-αMeL-LD-Orn-K((2-[2-(2-Amino-ethoxy)-ethoxy]-acetyl)2-CO-(CH2)12-CO2H)AQ-Aib-K((2-[2-(2-Amino-ethoxy)-ethoxy]-acetyl)2-CO-(CH2)12-CO2H)FI-(D-Glu)-αMeY-LIEGGPSSGAPPPS-NH2
B16: Example 269 (peptide)
peptide: Y[Aib]EGT[αMePhe(2-F)]TSD[Nle]SI[αMeL]LD[Orn]IAQ[Aib]EFIK([AEEA-AEEA-γGlu-C14 diacid])[αMeY]LIK([AEEA-AEEA-γGlu-C14 diacid])GGPSSGAPPPS-NH2
modifications: N-terminus assumed
SMILES: CCCC[C@H](NC(=O)[C@H](CC(=O)O)NC(=O)[C@H](CO)NC(=O)[C@@H](NC(=O)[C@](C)(Cc1ccccc1F)NC(=O)[C@@H](NC(=O)CNC(=O)[C@H](CCC(=O)O)NC(=O)C(C)(C)NC(=O)[C@@H](N)Cc1ccc(O)cc1)[C@@H](C)O)[C@@H](C)O)C(=O)N[C@@H](CO)C(=O)N[C@H](C(=O)N[C@@](C)(CC(C)C)C(=O)N[C@@H](CC(C)C)C(=O)N[C@@H](CC(=O)O)C(=O)N[C@@H](CCCN)C(=O)N[C@H](C(=O)N[C@@H](C)C(=O)N[C@@H](CCC(N)=O)C(=O)NC(C)(C)C(=O)N[C@@H](CCC(=O)O)C(=O)N[C@@H](Cc1ccccc1)C(=O)N[C@H](C(=O)N[C@@H](CCCCNC(=O)COCCOCCNC(=O)COCCOCCNC(=O)CC[C@H](NC(=O)CCCCCCCCCCCCC(=O)O)C(=O)O)C(=O)N[C@@](C)(Cc1ccc(O)cc1)C(=O)N[C@@H](CC(C)C)C(=O)N[C@H](C(=O)N[C@@H](CCCCNC(=O)COCCOCCNC(=O)COCCOCCNC(=O)CC[C@H](NC(=O)CCCCCCCCCCCCC(=O)O)C(=O)O)C(=O)NCC(=O)NCC(=O)N1CCC[C@H]1C(=O)N[C@@H](CO)C(=O)N[C@@H](CO)C(=O)NCC(=O)N[C@@H](C)C(=O)N1CCC[C@H]1C(=O)N1CCC[C@H]1C(=O)N1CCC[C@H]1C(=O)N[C@@H](CO)C(N)=O)[C@@H](C)CC)[C@@H](C)CC)[C@@H](C)CC)[C@@H](C)CC
B17: Example 273 (peptide)
peptide: YXEGTXTSDXSIXLDXKAQXEFIXXLIEGGPSSGAPPPSK
modifications: Y-Aib-EGT-αMeF(2F)-TSD-4Pal-SI-αMeL-LD-Orn-K((2-[2-(2-Amino-ethoxy)-ethoxy]-acetyl)2-(γ-Glu)-(10-(4-carboxyphenoxy)decanoyl))AQ-Aib-EFI-(D-Glu)-αMeY-LIEGGPSSGAPPPSK((2-[2-(2-Amino-ethoxy)-ethoxy]-acetyl)2-(γ-Glu)-(10-(4-carboxyphenoxy)decanoyl))-NH2
B18: Example 288 (peptide)
peptide: B17 peptide with K17I, E21K
modifications: Y-Aib-EGT-αMeF(2F)-TSD-4Pal-SI-αMeL-LD-Orn-IAQ-Aib-K(2-[2-(2-Amino-ethoxy)-ethoxy]-acetyl)2-(γ-Glu)-(11-(4-carboxyphenoxy)undecanoyl)FI-(D-Glu)-αMeY-LIEGGPSSGAPPPSK((2-[2-(2-Amino-ethoxy)-ethoxy]-acetyl)2-(γ-Glu)-(11-(4-carboxyphenoxy)undecanoyl)-NH2)
B19: Example 285 (peptide)
peptide: B17 peptide
modifications: Y-Aib-EGT-αMeF(2F)-TSD-4Pal-SI-αMeL-LD-Orn-K((2-[2-(2-Amino-ethoxy)-ethoxy]-acetyl)2-(γ-Glu)-(11-(4-carboxyphenoxy)undecanoyl))AQ-Aib-EFI-(D-Glu)-αMeY-LIEGGPSSGAPPPSK((2-[2-(2-Amino-ethoxy)-ethoxy]-acetyl)2-(γ-Glu)-(11-(4-carboxyphenoxy)undecanoyl))-NH2
B20: Example 276 (peptide)
peptide: B17 peptide with K17I, E21K
modifications: Y-Aib-EGT-αMeF(2F)-TSD-4Pal-SI-αMeL-LD-Orn-IAQ-Aib-K((2-[2-(2-Amino-ethoxy)-ethoxy]-acetyl)2-(y-Glu)-(10-(4-carboxyphenoxy)decanoyl))FI-(D-Glu)-αMeY-LIEGGPSSGAPPPSK((2-[2-(2-Amino-ethoxy)-ethoxy]-acetyl)2-(γ-Glu)-(10-(4-carboxyphenoxy)decanoyl))-NH2

target: human GLP-1 receptor (human, UniProt P43220 24-463); assay: cell-based or functional assay

Binder	cAMP EC50 (1.0% HSA) [nM]	cAMP Emax (1.0% HSA) [%]
B1	32.6	–
B2	31.8	–
B3	12.2	–
B4	32.9	–
B5	137	–
B6	49.5	–
B7	36.6	–
B8	22.4	–
B9	35	90.3
B10	83.8	–
B11	4.72	–
B12	27	–
B13	49.9	–
B14	33.5	–
B15	10.2	–
B16	46.5	–
B17	40.9	–
B18	17.1	123
B19	136	–
B20	63.6	–

target: T1, human GIP receptor; assay: cell-based or functional assay

Binder	cAMP EC50 (1.0% HSA) [nM]	cAMP Emax (1.0% HSA) [%]
B1	3.8	80.9
B2	1.44	–
B3	0.962	–
B4	1.16	–
B5	8.38	–
B6	4.88	–
B7	3.21	–
B8	1.87	–
B9	2.18	–
B10	3.76	–
B11	0.561	81.2
B12	1.41	–
B13	4.84	88.5
B14	0.926	–
B15	0.767	–
B16	2.65	–
B17	0.318	–
B18	0.48	85.2
B19	1.28	–
B20	1.97	91.4

target: human glucagon receptor (human, UniProt P47871 26-477); assay: cell-based or functional assay

Binder	cAMP EC50 (1.0% HSA) [nM]
B1	> 9950
B2	> 9950
B3	> 9950
B4	> 9950
B5	> 9950
B6	> 9950
B7	> 9950
B8	> 9950
B9	> 9950
B10	> 9950
B11	> 9950
B12	> 9950
B13	> 9950
B14	> 9950
B15	> 9950
B16	> 9950
B17	> 9950
B18	> 9950
B19	> 9950
B20	> 9950
